From US20240343761A1, “APELINERGIC MACROCYCLES AND USES THEREOF” (priority 2021, published 2024)
Where two headings read alike, the source gives them in different places. Numbered stars: 1 amine (or outer) side, 2 acyl side, 3 side chain; on linkers, the order of the positions; unused ones are H or OH. Bridge positions count the residues as written; N and C are the ends. Square brackets hold non-standard residues; d marks the D form. Ends that are not written are not given here. Peptide text beside a SMILES is read from it. * marks the point of attachment. cypTyr(OBn) = 3-cyclopentyl-O-benzyl-L-tyrosine, O=C([C@H](Cc1ccc(OCc2ccccc2)c(C2CCCC2)c1)N[*:1])[*:2]; Hyp(OBn) = O-benzyl-4-hydroxyproline, O=C([C@@H]1C[C@@H](OCc2ccccc2)CN1[*:1])[*:2]; cypY = 3-cyclopentyl-tyrosine, O=C([C@H](Cc1ccc(O[*:3])c(C2CCCC2)c1)N[*:1])[*:2]; Alnb = Nγ-allyl-Nγ-nosyl-α,γ-diamino-butanoic acid; Oic = O=C(O)[C@@H]1C[C@@H]2CCCC[C@@H]2N1; Phe(4-Br) = N[C@@H](Cc1ccc(Br)cc1)C(=O)O; Benzoyl(4-Br) = O=C(c1ccc(Br)cc1)*; hArg = N=C(N)NCCCC[C@H](N)C(=O)O; AllylGly = C=CC[C@H](N)C(=O)O; pGlu = O=C1CC[C@@H](C(=O)O)N1; Nle = CCCC[C@H](N)C(=O)O; B1 = not defined here; B3 = not defined here

Legend:
[1] = biological target: T1, human APJ (hAPJ) (Homo sapiens, UniProt P35414); assay: Competitive radioligand binding ([125I][Nle75,Tyr77][Pyr1]-Ape13) on membranes of HEK293 cells stably expressing human APJ; conditions: Ki binding
T1 construct: expressed in transfected cells; cell membranes
T1 sequence (P35414 1-380): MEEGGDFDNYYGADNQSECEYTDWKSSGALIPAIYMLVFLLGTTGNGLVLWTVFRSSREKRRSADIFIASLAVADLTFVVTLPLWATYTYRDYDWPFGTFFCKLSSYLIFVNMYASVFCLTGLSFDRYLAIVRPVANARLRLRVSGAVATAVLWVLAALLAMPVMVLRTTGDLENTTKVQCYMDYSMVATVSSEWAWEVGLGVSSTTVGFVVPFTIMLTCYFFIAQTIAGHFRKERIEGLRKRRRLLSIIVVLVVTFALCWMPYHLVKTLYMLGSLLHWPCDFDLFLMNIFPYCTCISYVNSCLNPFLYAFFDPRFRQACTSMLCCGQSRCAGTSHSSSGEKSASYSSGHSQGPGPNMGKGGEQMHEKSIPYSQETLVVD
Procedure: HEK293 cells stably expressing YFP-tagged human APJ were cultured in DMEM medium supplemented with 10% FBS, at 37° C. under a humid atmosphere maintaining 5% CO2. Antibiotic G418 (400 μg/mL) was added to maintain a selection pressure for APJ-expressing cells while penicillin/streptomycin (0.1%) were used to prevent bacterial contamination.
Binding experiments were performed on cell membranes of HEK293 stably expressing the YFP-tagged human APJ receptor. Cells were frozen at −80° C. for storage and quickly thawed right before the experiments (1 min at 37° C.). […] The precipitate (cell membranes) was suspended in binding buffer (50 mM Tris-HCl, 0.2% BSA, pH 7.4). Binding assays were run in 96-well plates. […] (820 Ci/mmol)^3 and test ligand with a range of concentrations from 10^−1 to 10^−11 M in a total volume of 200 μL for 1 h at room temperature.
The incubation mixtures were filtered through a glass fiber filter (Millipore, pre-absorbed of PEI 0.5% for 2 h at 4° C.) to remove unbound ligands, and the filter membranes were washed three times with 170 μL cold binding buffer (4° C.). The γ emission was measured using a 1470 Wizard γ-counter from PerkinElmer (Waltham, USA) (80% efficiency).

[2] = Rat plasma stability (half-life in vitro); type: in vitro ADME; conditions: male, Sprague-Dawley, rat, plasma; for half-life at 0.182 mM: Table I, 37° C., up to 24 h
Procedure: Plasma was obtained from male Sprague-Dawley rats by collecting blood in heparin tube and centrifugating at 13,000 rpm to remove blood cells. The isolated plasma was stored at −80° C. and thawed right before the test. In 96-well plate, 6 μL of peptide solution at 1 mM was incubated with 27 μL of plasma at 37° C. in an oven equipped with orbital shaker. Tightly fitted caps were used to seal the wells to avoid water evaporation during incubation. […] A 96-well UPLC plate was put at the bottom to collect the samples. Both plates were centrifuged at 500 g for 10 min at 4° C. to accelerate the filtration. […] The quantity of remaining peptide was plotted into an exponential one-phase decay curve using GraphPad Prism 8 which allowed to calculate peptide half-life. The results were presented as mean±SEM of at least 3 independent experiments, each done in simplicate.
The percentage of remaining analogue was calculated by doing the ratio between AU of compound and AUC of internal standard. Half-lives were extrapolated from curves.

[3] = biological target: T2, hAPJ receptor (Homo sapiens, UniProt P35414); assay: BRET-based Gαi1 activation assay in HEK293 cells; type: cell-based
T2 construct: expressed in transfected cells; host or cells: HEK293, transient transfection with PEI
T2 sequence (P35414 1-380): T1 sequence (P35414 1-380)
Summary of the method: (§1)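 HEK293 cells in HBSS stimulated with analogs from 10^−5 to 10^−11 M, 5 min at 37 °C (Gαi1) or 30 min at room temperature (β-arrestin2).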

[4] = biological target: T2, hAPJ receptor; assay: BRET-based β-arrestin2 recruitment assay in HEK293 cells; type: cell-based
Summary of the method: as §1

[5] = biological target: T3, human APJ (transfected HEK293 cells, Gαi1 BRET assay) (human, UniProt P35414 1-380); assay: cell-based or functional assay
T3 sequence (looked up): T1 sequence (P35414 1-380)

[6] = biological target: T4, YFP-tagged human APJ receptor (human, UniProt P35414 1-380); assay: competitive radioligand binding, HEK293-hAPJ membranes
T4 construct: whole, on cells; also called hAPJ; APJ WT; not shown: YFP tag
T4 sequence (looked up): T1 sequence (P35414 1-380)

[7] = biological target: T3, human APJ (transfected HEK293 cells, …); assay: cell-based or functional assay; remark: listed apart in the source
[8] = biological target: T4, YFP-tagged human APJ receptor; assay: competitive radioligand binding, HEK293-hAPJ membranes; remark: listed apart in the source
[9] = biological target: T3, human APJ (transfected HEK293 cells, …); assay: cell-based or functional assay; remark: listed apart in the source

Molecule: CC(C)C[C@@H]1NC(=O)[C@H](CCCNC(=N)N)NC(=O)[C@@H](N)CC=CC[C@@H](C(=O)N[C@@H](CCCCN)C(=O)NCC(=O)N2CCC[C@H]2C(=O)N[C@@H](C)C(=O)O)NC(=O)[C@H](CO)NC1=O [Compound 34, NH2-c[X-R-L-S-X]c-K-G-P-Ala] (H-[AllylGly]RLS[AllylGly]KGPA-OH; staple 1-5)
- Ki [1]: > 10000 nM
- half-life at 0.182 mM ([2]; rat plasma): 48 ± 18 min

Molecule: CCCC[C@H](NC(=O)[C@@H]1CCCN1C(=O)CNC(=O)[C@H](CCCCN)NC(=O)[C@@H]1CC=CC[C@H](NC(=O)[C@H](CCCNC(=N)N)NC(=O)[C@@H]2CCC(=O)N2)C(=O)N[C@@H](CCCNC(=N)N)C(=O)N[C@@H](CC(C)C)C(=O)N[C@@H](CO)C(=O)N1)C(=O)N1CCC[C@H]1C(=O)N[C@@H](Cc1ccccc1)C(=O)O [Compound 97, Pyr-R-c[X-R-L-S-X]c-K-G-P-Nle-P-F, reference compound]
- Emax ([3]; HEK293, Table V, read-out: Gαi1 Emax): 101%
- Emax ([4]; HEK293, Table V, read-out: ß-arr2 Emax): 98%
- half-life at […] ([2]; t1/2 in rat plasma): 120 to 300 min

Molecule: CCCC[C@H](NC(=O)[C@@H]1CCC(=O)NCCCC[C@H](N)C(=O)N[C@@H](CCCNC(=N)N)C(=O)N[C@@H](CCCNC(=N)N)C(=O)N1)C(=O)N[C@H]1CSSC[C@@H](C(=O)N[C@@H](CCCNC(=N)N)C(=O)N[C@H](C(=O)N2CCC[C@H]2C(=O)N[C@@H](Cc2ccccc2)C(=O)N2CCC[C@H]2C(=O)O)C(C)C)NC(=O)[C@H](Cc2c[nH]cn2)NC(=O)[C@H](CC(C)C)NC1=O [Compound 79, c[K-R-R-E]-Nle-c[C-L-H-C]-R-V-P-F-P] (H-KRRE[Nle]CLHCRVPFP-OH; lactam 1-4; disulfide 6-9)
- EC50 [3]: 4 ± 0.8 nM
- EC50 [4]: 51 ± 3 nM
- half-life at […] ([2]; Table III, rat plasma, read-out: Half-life in vitro (converted)): > 1020 min

Molecule: CCCC[C@H](NC(=O)[C@@H]1CCCN1C(=O)CNC(=O)[C@H](CCCCN)NC(=O)[C@@H]1CC(=O)NC[C@H](NC(=O)[C@H](CCCNC(=N)N)NC(=O)[C@@H]2CCC(=O)N2)C(=O)N[C@@H](CCCNC(=N)N)C(=O)N[C@@H](CC(C)C)C(=O)N[C@@H](CO)C(=O)N1)C(=O)N1CCC[C@H]1C(=O)N[C@@H](Cc1ccccc1)C(=O)O [Compound 14, Pyr-R-c[Dap-R-L-S-Asp]c-K-G-P-Nle-P-F]
- half-life at 0.182 mM ([2]; rat plasma): 12 ± 6 min

Molecule: Ac-KFRRQRPRLEHKKP[Nle]P[cypY] (lactam 10-13) [Compound 64 (KT02-78)]
- EC50 Gαi1 [5]: 19.4 nM
- Ki [6]: 0.77 nM

Molecule: KRRE[Nle]CLHCRVPFP (lactam 1-4; disulfide 6-9) [Compound 79 (AM03-68)]
- EC50 Gail [7]: 4 nM
- Ki [8]: 0.61 nM

Molecule: Ac-KFRRQRPRLEHKKP[Nle]P[B1] (lactam 10-13; reading uncertain) [Compound 67 (KT02-18)]
- Ki [6]: 12 nM

Molecule: KRRE[Nle]PLHSRVPFP (lactam 1-4) [Compound 72 (AM03-37)]
- EC50 Gail [7]: 1.7 nM
- Ki [8]: 0.87 nM

Molecule: [pGlu]RRK[Nle]PEHSRVPFP (lactam 4-7) [Compound 74 (AM03-38)]
- Ki [8]: 261 nM

Molecule: [pGlu]RRSEPLHKRVPFP (lactam 5-9) [Compound 77 (ABB01-106)]
- EC50 Gail [7]: 6.1 nM
- Ki [8]: 6.2 nM

Molecule: [pGlu]R[hArg]SEPLHKRVPFP (lactam 5-9) [Compound 91 (KT03-17)]
- EC50 Gail [7]: 4.3 nM
- Ki [8]: 9.4 nM

Molecule: [pGlu]RRSEPLHKRVPF[Hyp(OBn)] (lactam 5-9) [Compound 93 (KT03-19)]
- EC50 Gail [7]: 47 nM

Molecule: H-[AllylGly]RLS[AllylGly]KGP[Nle]PF (staple 1-5) [Compound 20 (KT01-100)]
- Gαi1 Emax (%) [9]: 100%

Molecule: H-[AllylGly]RLS[Alnb]KGP[Nle]PF (staple 1-5) [Compound 28 (KT01-135)]
- Gαi1 Emax (%) [9]: 106%

Molecule: {Benzoyl(4-Br)}-RRSEPLHKRVP[Phe(4-Br)]P (lactam 4-8) [Compound 94 (KT04-16)]
- Ki [8]: 0.29 nM

Molecule: [pGlu]RRSKPLHERVPFP (lactam 5-9) [Compound 76 (AM03-40)]
- Ki [8]: 119 nM

Molecule: [pGlu]RRSEPLHKRVP[Phe(4-Br)]P (lactam 5-9) [Compound 92 (KT03-15)]
- EC50 Gail [7]: 16 nM

Molecule: Ac-KFRRQRPRLEHKKP[Nle]P[cypTyr(OBn)] (lactam 10-13) [Compound 63 (KT02-76)]
- EC50 Gαi1 [5]: 5.47 nM
- Ki [6]: 0.25 nM

Molecule: [Nle]PEHSRKPFP (lactam 3-7) [Compound 84 (ABB01-109)]
- Ki [8]: 274 nM

Molecule: Guanidine-[AllylGly]RLS[AllylGly]KGP[Nle]PF (staple 1-5) [Compound 23 (KT01-121)]
- Gαi1 Emax (%) [9]: 103%

Molecule: [pGlu]RRSEPLHKRV[Oic]FP (lactam 5-9) [Compound 78 (AM03-67)]
- EC50 Gail [7]: 24 nM
- Ki [8]: 173 nM

Molecule: Ac-KFRRQRPRLEHAKPAPF (lactam 10-13) [Compound 62 (KT02-62)]
- EC50 Gαi1 [5]: 33.4 nM

Molecule: [pGlu]R[AllylGly]RLS[AllylGly]KGP[Nle]PF (staple 3-7) [Compound 97]
- Gαi1 Emax (%) [9]: 101%

Molecule: H-[AllylGly]RLS[AllylGly]KGP[dY] (staple 1-5) [Compound 45 (KT04-42b)]
- Gαi1 Emax (%) [9]: 100%

Molecule: Ac-KFRRQRPRLEHKKP[Nle]P[B3] (lactam 10-13; reading uncertain; also: B3 structure not given here) [Compound 69 (KT02-20)]
- Ki [6]: 3 nM

Molecule: [pGlu]RRE[Nle]PKHSRVPFP (lactam 4-7) [Compound 75 (ABB01-105)]
- EC50 Gail [7]: 19 nM
- Ki [8]: 59 nM

Molecule: KRRE[Nle]PLHSRV[Oic]FP (lactam 1-4) [Compound 73 (AM03-66)]
- EC50 Gail [7]: 14 nM
- Ki [8]: 11 nM

Molecule: [pGlu]R[AllylGly]RLS[Alnb]KGP[Nle]PF (staple 3-7) [Compound 16 (KT01-123)]
- Gαi1 Emax (%) [9]: 102%

Molecule: [pGlu][hArg]RSEPLHKRVPFP (lactam 5-9) [Compound 90 (KT03-16)]
- EC50 Gail [7]: 15 nM
